# Assay results taken from publication PMC7475178, “Dynamic regulation of anthocyanin biosynthesis at different light intensities by the BT2-TCP46-MYB1 module in apple”.
# T1: MdMYB1-HIS (Malus domestica, UniProt M1UZJ0 1-243)
# T1 sequence: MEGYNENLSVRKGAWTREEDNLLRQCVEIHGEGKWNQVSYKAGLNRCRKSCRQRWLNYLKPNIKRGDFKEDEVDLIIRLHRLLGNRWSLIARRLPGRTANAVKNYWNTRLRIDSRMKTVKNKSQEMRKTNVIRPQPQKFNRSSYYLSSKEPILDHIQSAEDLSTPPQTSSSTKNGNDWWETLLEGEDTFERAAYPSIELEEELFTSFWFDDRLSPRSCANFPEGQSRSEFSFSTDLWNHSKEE
# Target: T1, MdMYB1-HIS
# Experiment: EMSA; Proteins and biotin probes mixed in binding buffer for 25 min, acrylamide gel; buffer, salt, pH and temperature not stated
# Conditions: protein: recombinant; tags: His (pET32a); label: biotin; blunt
row,Binder,binding result
1,MdDFR-Probe (dsDNA) DNA 1: CGTGCGTCAACCGTTAGGAAAGCACG DNA 2: CGTGCTTTCCTAACGGTTGACGCACG,binds
2,MdUF3GT-Probe (dsDNA) DNA 1: ACCTTCCCGTCAGTTATTGCAGGTGG DNA 2: CCACCTGCAATAACTGACGGGAAGGT,binds
